Assay [1] deals with human GLP-1 receptor (hGLP-1R) (human, UniProt P43220 24-463). Nature of the assay: cell-based or functional assay.
The target of assay [2] is human glucagon receptor (hGCGR) (human, UniProt P47871 26-477). Nature of the assay: cell-based or functional assay.

Starred links: 1 amine or outer side, 2 acyl side, 3 side chain; linkers in the order of their positions; H or OH if unused. Non-standard residues stand in square brackets, D forms with d. Groups on a side chain read outwards from the residue. No end group written: not given here. *: point of attachment. C20 diacid = O=C(O)CCCCCCCCCCCCCCCCCCC(=O)*; C18 diacid = O=C(O)CCCCCCCCCCCCCCCCC(=O)*; Dip = N[C@H](C(=O)O)C(c1ccccc1)c1ccccc1; γGlu = O=C(O)[C@H](CCC(=O)[*:2])N[*:1]; Stearoyl = CCCCCCCCCCCCCCCCCC(=O)*; αMeF = C[C@](N)(Cc1ccccc1)C(=O)O; (PEG)2 = polyethylene glycol 2; AEEA = NCCOCCOCC(=O)O; Aib = CC(C)(N)C(=O)O

Sequence of human glucagon receptor (hGCGR) (P47871 26-477): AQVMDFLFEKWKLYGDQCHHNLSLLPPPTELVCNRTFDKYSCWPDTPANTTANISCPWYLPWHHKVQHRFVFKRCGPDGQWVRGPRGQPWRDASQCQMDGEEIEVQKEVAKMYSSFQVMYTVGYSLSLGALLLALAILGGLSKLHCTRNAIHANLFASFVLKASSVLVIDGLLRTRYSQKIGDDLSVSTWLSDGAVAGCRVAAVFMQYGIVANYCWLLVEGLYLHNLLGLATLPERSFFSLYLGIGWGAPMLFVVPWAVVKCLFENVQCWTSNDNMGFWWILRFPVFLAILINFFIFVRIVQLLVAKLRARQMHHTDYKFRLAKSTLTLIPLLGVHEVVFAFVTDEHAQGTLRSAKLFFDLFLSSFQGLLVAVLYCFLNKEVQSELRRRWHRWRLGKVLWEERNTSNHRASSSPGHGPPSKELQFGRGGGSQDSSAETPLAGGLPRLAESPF

B1: Peptide 166 (peptide)
peptide: H[Aib]QGTFTSDVSK[αMeF]LDSK([AEEA-AEEA-γGlu-C18 diacid])RARDFVRWLL[Aib]TE-OH
modifications: N-terminus assumed
SMILES: CC(C)C[C@H](NC(=O)[C@H](Cc1c[nH]c2ccccc12)NC(=O)[C@H](CCCNC(=N)N)NC(=O)[C@@H](NC(=O)[C@H](Cc1ccccc1)NC(=O)[C@H](CC(=O)O)NC(=O)[C@H](CCCNC(=N)N)NC(=O)[C@H](C)NC(=O)[C@H](CCCNC(=N)N)NC(=O)[C@H](CCCCNC(=O)COCCOCCNC(=O)COCCOCCNC(=O)CC[C@H](NC(=O)CCCCCCCCCCCCCCCCC(=O)O)C(=O)O)NC(=O)[C@H](CO)NC(=O)[C@H](CC(=O)O)NC(=O)[C@H](CC(C)C)NC(=O)[C@](C)(Cc1ccccc1)NC(=O)[C@H](CCCCN)NC(=O)[C@H](CO)NC(=O)[C@@H](NC(=O)[C@H](CC(=O)O)NC(=O)[C@H](CO)NC(=O)[C@@H](NC(=O)[C@H](Cc1ccccc1)NC(=O)[C@@H](NC(=O)CNC(=O)[C@H](CCC(N)=O)NC(=O)C(C)(C)NC(=O)[C@@H](N)Cc1c[nH]cn1)[C@@H](C)O)[C@@H](C)O)C(C)C)C(C)C)C(=O)N[C@@H](CC(C)C)C(=O)NC(C)(C)C(=O)N[C@H](C(=O)N[C@@H](CCC(=O)O)C(=O)O)[C@@H](C)O
For the molecule B1, the “hGLP-1R EC50 (pM)” value in assay [1] came out at 48 pM. Further, the “hGluc-R EC50 (pM)” value in assay [2] amounted to 270 pM.

B2: Peptide 151 (peptide)
peptide: H[Aib]QGTFTSDVSK[αMeF]LDSK([AEEA-AEEA-γGlu-C20 diacid])RAQDFVRWLL[Aib]TE-OH
modifications: N-terminus assumed
SMILES: CC(C)C[C@H](NC(=O)[C@H](Cc1c[nH]c2ccccc12)NC(=O)[C@H](CCCNC(=N)N)NC(=O)[C@@H](NC(=O)[C@H](Cc1ccccc1)NC(=O)[C@H](CC(=O)O)NC(=O)[C@H](CCC(N)=O)NC(=O)[C@H](C)NC(=O)[C@H](CCCNC(=N)N)NC(=O)[C@H](CCCCNC(=O)COCCOCCNC(=O)COCCOCCNC(=O)CC[C@H](NC(=O)CCCCCCCCCCCCCCCCCCC(=O)O)C(=O)O)NC(=O)[C@H](CO)NC(=O)[C@H](CC(=O)O)NC(=O)[C@H](CC(C)C)NC(=O)[C@](C)(Cc1ccccc1)NC(=O)[C@H](CCCCN)NC(=O)[C@H](CO)NC(=O)[C@@H](NC(=O)[C@H](CC(=O)O)NC(=O)[C@H](CO)NC(=O)[C@@H](NC(=O)[C@H](Cc1ccccc1)NC(=O)[C@@H](NC(=O)CNC(=O)[C@H](CCC(N)=O)NC(=O)C(C)(C)NC(=O)[C@@H](N)Cc1c[nH]cn1)[C@@H](C)O)[C@@H](C)O)C(C)C)C(C)C)C(=O)N[C@@H](CC(C)C)C(=O)NC(C)(C)C(=O)N[C@H](C(=O)N[C@@H](CCC(=O)O)C(=O)O)[C@@H](C)O
Regarding B2, the “hGLP-1R EC50 (pM)” value in assay [1] is 111 pM. Also, the “hGluc-R EC50 (pM)” value in assay [2] is 178 pM.

B3: Peptide 5 (peptide)
peptide: H[Aib]QGS[αMeF]TSDVSK[αMeF]LDSK([AEEA-AEEA-γGlu-γGlu-C18 diacid])AAQD[αMeF]VQ[Aib]IAN-NH2
modifications: N-terminus assumed
SMILES: CC[C@H](C)[C@H](NC(=O)C(C)(C)NC(=O)[C@H](CCC(N)=O)NC(=O)[C@@H](NC(=O)[C@](C)(Cc1ccccc1)NC(=O)[C@H](CC(=O)O)NC(=O)[C@H](CCC(N)=O)NC(=O)[C@H](C)NC(=O)[C@H](C)NC(=O)[C@H](CCCCNC(=O)COCCOCCNC(=O)COCCOCCNC(=O)CC[C@H](NC(=O)CC[C@H](NC(=O)CCCCCCCCCCCCCCCCC(=O)O)C(=O)O)C(=O)O)NC(=O)[C@H](CO)NC(=O)[C@H](CC(=O)O)NC(=O)[C@H](CC(C)C)NC(=O)[C@](C)(Cc1ccccc1)NC(=O)[C@H](CCCCN)NC(=O)[C@H](CO)NC(=O)[C@@H](NC(=O)[C@H](CC(=O)O)NC(=O)[C@H](CO)NC(=O)[C@@H](NC(=O)[C@](C)(Cc1ccccc1)NC(=O)[C@H](CO)NC(=O)CNC(=O)[C@H](CCC(N)=O)NC(=O)C(C)(C)NC(=O)[C@@H](N)Cc1c[nH]cn1)[C@@H](C)O)C(C)C)C(C)C)C(=O)N[C@@H](C)C(=O)N[C@@H](CC(N)=O)C(N)=O
As for B3, in assay [1], the “hGLP-1R EC50 (pM)” value was 283 pM. Further, the “hGluc-R EC50 (pM)” value in assay [2] stood at 7140 pM.
As for HSQGS[αMeF]TSDVSK[Dip]LDSK([(PEG)2-(PEG)2-γGlu-γGlu-Stearoyl])AAQD[αMeF]VQ[Dip]LEA-NH2 [Peptide 55], in assay [1], the “hGLP-1R EC50 (pM)” value is 18.8 pM. Further, the “hGluc-R EC50 (pM)” value in assay [2] was 19.1 pM.

B4: Peptide 6 (peptide)
peptide: H[Aib]HGS[αMeF]TSDVSK[αMeF]LDSK([AEEA-AEEA-γGlu-C18 diacid])AAQD[αMeF]VEWIAN-NH2
modifications: N-terminus assumed
SMILES: CC[C@H](C)[C@H](NC(=O)[C@H](Cc1c[nH]c2ccccc12)NC(=O)[C@H](CCC(=O)O)NC(=O)[C@@H](NC(=O)[C@](C)(Cc1ccccc1)NC(=O)[C@H](CC(=O)O)NC(=O)[C@H](CCC(N)=O)NC(=O)[C@H](C)NC(=O)[C@H](C)NC(=O)[C@H](CCCCNC(=O)COCCOCCNC(=O)COCCOCCNC(=O)CC[C@H](NC(=O)CCCCCCCCCCCCCCCCC(=O)O)C(=O)O)NC(=O)[C@H](CO)NC(=O)[C@H](CC(=O)O)NC(=O)[C@H](CC(C)C)NC(=O)[C@](C)(Cc1ccccc1)NC(=O)[C@H](CCCCN)NC(=O)[C@H](CO)NC(=O)[C@@H](NC(=O)[C@H](CC(=O)O)NC(=O)[C@H](CO)NC(=O)[C@@H](NC(=O)[C@](C)(Cc1ccccc1)NC(=O)[C@H](CO)NC(=O)CNC(=O)[C@H](Cc1c[nH]cn1)NC(=O)C(C)(C)NC(=O)[C@@H](N)Cc1c[nH]cn1)[C@@H](C)O)C(C)C)C(C)C)C(=O)N[C@@H](C)C(=O)N[C@@H](CC(N)=O)C(N)=O
For the molecule B4, the “hGLP-1R EC50 (pM)” value in assay [1] was 568 pM. Also, in assay [2], the “hGluc-R EC50 (pM)” value came to 516 pM.

B5: Peptide 153 (peptide)
peptide: H[Aib]QGTFTSDVSK[αMeF]LDSK([AEEA-AEEA-γGlu-C20 diacid])RAQDFVRWLL[Aib]E-OH
modifications: N-terminus assumed
SMILES: CC(C)C[C@H](NC(=O)[C@H](Cc1c[nH]c2ccccc12)NC(=O)[C@H](CCCNC(=N)N)NC(=O)[C@@H](NC(=O)[C@H](Cc1ccccc1)NC(=O)[C@H](CC(=O)O)NC(=O)[C@H](CCC(N)=O)NC(=O)[C@H](C)NC(=O)[C@H](CCCNC(=N)N)NC(=O)[C@H](CCCCNC(=O)COCCOCCNC(=O)COCCOCCNC(=O)CC[C@H](NC(=O)CCCCCCCCCCCCCCCCCCC(=O)O)C(=O)O)NC(=O)[C@H](CO)NC(=O)[C@H](CC(=O)O)NC(=O)[C@H](CC(C)C)NC(=O)[C@](C)(Cc1ccccc1)NC(=O)[C@H](CCCCN)NC(=O)[C@H](CO)NC(=O)[C@@H](NC(=O)[C@H](CC(=O)O)NC(=O)[C@H](CO)NC(=O)[C@@H](NC(=O)[C@H](Cc1ccccc1)NC(=O)[C@@H](NC(=O)CNC(=O)[C@H](CCC(N)=O)NC(=O)C(C)(C)NC(=O)[C@@H](N)Cc1c[nH]cn1)[C@@H](C)O)[C@@H](C)O)C(C)C)C(C)C)C(=O)N[C@@H](CC(C)C)C(=O)NC(C)(C)C(=O)N[C@@H](CCC(=O)O)C(=O)O
Take B5: the “hGLP-1R EC50 (pM)” value in assay [1] came to 41.2 pM. In addition, the “hGluc-R EC50 (pM)” value in assay [2] came out at 99 pM.

B6: Peptide 152 (peptide)
peptide: H[Aib]QGTFTSDVSK[αMeF]LDSK([AEEA-AEEA-γGlu-C18 diacid])RAQDFVRWLL[Aib]E-OH
modifications: N-terminus assumed
SMILES: CC(C)C[C@H](NC(=O)[C@H](Cc1c[nH]c2ccccc12)NC(=O)[C@H](CCCNC(=N)N)NC(=O)[C@@H](NC(=O)[C@H](Cc1ccccc1)NC(=O)[C@H](CC(=O)O)NC(=O)[C@H](CCC(N)=O)NC(=O)[C@H](C)NC(=O)[C@H](CCCNC(=N)N)NC(=O)[C@H](CCCCNC(=O)COCCOCCNC(=O)COCCOCCNC(=O)CC[C@H](NC(=O)CCCCCCCCCCCCCCCCC(=O)O)C(=O)O)NC(=O)[C@H](CO)NC(=O)[C@H](CC(=O)O)NC(=O)[C@H](CC(C)C)NC(=O)[C@](C)(Cc1ccccc1)NC(=O)[C@H](CCCCN)NC(=O)[C@H](CO)NC(=O)[C@@H](NC(=O)[C@H](CC(=O)O)NC(=O)[C@H](CO)NC(=O)[C@@H](NC(=O)[C@H](Cc1ccccc1)NC(=O)[C@@H](NC(=O)CNC(=O)[C@H](CCC(N)=O)NC(=O)C(C)(C)NC(=O)[C@@H](N)Cc1c[nH]cn1)[C@@H](C)O)[C@@H](C)O)C(C)C)C(C)C)C(=O)N[C@@H](CC(C)C)C(=O)NC(C)(C)C(=O)N[C@@H](CCC(=O)O)C(=O)O
As for B6, the “hGLP-1R EC50 (pM)” value in assay [1] stood at 11.9 pM. Moreover, the “hGluc-R EC50 (pM)” value in assay [2] was found to be 20.4 pM.

B7: Peptide 150 (peptide)
peptide: H[Aib]QGTFTSDVSK[αMeF]LDSK([AEEA-AEEA-γGlu-C18 diacid])RAQDFVQWLL[Aib]TE-OH
modifications: N-terminus assumed
SMILES: CC(C)C[C@H](NC(=O)[C@H](Cc1c[nH]c2ccccc12)NC(=O)[C@H](CCC(N)=O)NC(=O)[C@@H](NC(=O)[C@H](Cc1ccccc1)NC(=O)[C@H](CC(=O)O)NC(=O)[C@H](CCC(N)=O)NC(=O)[C@H](C)NC(=O)[C@H](CCCNC(=N)N)NC(=O)[C@H](CCCCNC(=O)COCCOCCNC(=O)COCCOCCNC(=O)CC[C@H](NC(=O)CCCCCCCCCCCCCCCCC(=O)O)C(=O)O)NC(=O)[C@H](CO)NC(=O)[C@H](CC(=O)O)NC(=O)[C@H](CC(C)C)NC(=O)[C@](C)(Cc1ccccc1)NC(=O)[C@H](CCCCN)NC(=O)[C@H](CO)NC(=O)[C@@H](NC(=O)[C@H](CC(=O)O)NC(=O)[C@H](CO)NC(=O)[C@@H](NC(=O)[C@H](Cc1ccccc1)NC(=O)[C@@H](NC(=O)CNC(=O)[C@H](CCC(N)=O)NC(=O)C(C)(C)NC(=O)[C@@H](N)Cc1c[nH]cn1)[C@@H](C)O)[C@@H](C)O)C(C)C)C(C)C)C(=O)N[C@@H](CC(C)C)C(=O)NC(C)(C)C(=O)N[C@H](C(=O)N[C@@H](CCC(=O)O)C(=O)O)[C@@H](C)O
Turning to B7, in assay [1], the “hGLP-1R EC50 (pM)” value came out at 166 pM. In addition, the “hGluc-R EC50 (pM)” value in assay [2] came to 355 pM.

These data come from US20230357348A1 (AstraZeneca / MedImmune, published 2023).
